We go through 16 molecules from US20260070987A1.

The assay has as its target equine FcRn (large alpha subunit p51) / equine beta-2-microglobulin complex, biotinylated (equine) (UniProt P30441). Kind of assay: SPR (Biacore), pH 6. For orientation: In SPR one partner is held on a chip, and binding of the other changes the refractive index at the surface.
Sequence of UniProt P30441 (P30441 21-118, one chain of several): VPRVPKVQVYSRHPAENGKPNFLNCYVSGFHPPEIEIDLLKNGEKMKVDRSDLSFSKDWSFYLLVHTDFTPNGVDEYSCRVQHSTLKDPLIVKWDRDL

B1: equine IgG1 T286Y (antibody, part only; not given: variable domains, not shown: another chain or arm of the molecule)
constant: ASTTAPKVFALAPGCGTTSDSTVALGCLVSGYFPEPVKVSWNSGSLTSGVHTFPSVLQSSGFYSLSSMVTVPASTWTSETYICNVVHAASNFKVDKRIEPIPDNHQKVCDMSKCPKCPAPELLGGPSVFIFPPNPKDTLMITRTPEVTCVVVDVSQENPDVKFNWYMDGVEVRYATTRPKEEQFNSTYRVVSVLRIQHQDWLSGKEFKCKVNNQALPQPIERTITKTKGRSQEPQVYVLAPHPDELSKSKVSVTCLVKDFYPPEINIEWQSNGQPELETKYSTTQAQQDSDGSYFLYSKLSVDRNRWQQGTTFTCGVMHEALHNHYTQKNVSKNPGK
A word on the Kd: it is the free concentration of one partner at which half of the binding sites on the other are occupied at equilibrium, for simple one-to-one binding. A lower Kd goes with higher affinity. B1 showed a Kd of 0.015 µM.

B2: equine IgG1 Q311A (antibody, part only; not given: variable domains, not shown: another chain or arm of the molecule)
constant: ASTTAPKVFALAPGCGTTSDSTVALGCLVSGYFPEPVKVSWNSGSLTSGVHTFPSVLQSSGFYSLSSMVTVPASTWTSETYICNVVHAASNFKVDKRIEPIPDNHQKVCDMSKCPKCPAPELLGGPSVFIFPPNPKDTLMITRTPEVTCVVVDVSQENPDVKFNWYMDGVEVRTATTRPKEEQFNSTYRVVSVLRIQHADWLSGKEFKCKVNNQALPQPIERTITKTKGRSQEPQVYVLAPHPDELSKSKVSVTCLVKDFYPPEINIEWQSNGQPELETKYSTTQAQQDSDGSYFLYSKLSVDRNRWQQGTTFTCGVMHEALHNHYTQKNVSKNPGK
Molecule B2 showed a Kd of 0.021 µM. This Kd and that of the molecule before are within 1.5-fold of each other.

B3: equine IgG4 T286F (antibody, part only; not given: variable domains, not shown: another chain or arm of the molecule)
constant: ASTTAPKVFPLASHSAATSGSTVALGCLVSSYFPEPVTVSWNSGALTSGVHTFPSVLQSSGLYSLSSMVTVPASSLKSQTYICNVAHPASSTKVDKKIVIKECNGGCPAECLQVGPSVFIFPPKPKDVLMISRTPTVTCVVVDVGHDFPDVQFNWYVDGVETHFATTEPKQEQFNSTYRVVSVLPIQHKDWLSGKEFKCKVNNKALPAPVERTISKPTGQPREPQVYVLAPHRDELSKNKVSVTCLVKDFYPTDIDIEWKSNGQPEPETKYSTTPAQLDSDGSYFLYSKLTVETNRWQQGTTFTCAVMHEALHNHYTEKSVSKSPGK
The molecule B3 had a dissociation constant Kd of 0.0222 µM.

B4: equine IgG4 T286K (antibody, part only; not given: variable domains, not shown: another chain or arm of the molecule)
constant: ASTTAPKVFPLASHSAATSGSTVALGCLVSSYFPEPVTVSWNSGALTSGVHTFPSVLQSSGLYSLSSMVTVPASSLKSQTYICNVAHPASSTKVDKKIVIKECNGGCPAECLQVGPSVFIFPPKPKDVLMISRTPTVTCVVVDVGHDFPDVQFNWYVDGVETHKATTEPKQEQFNSTYRVVSVLPIQHKDWLSGKEFKCKVNNKALPAPVERTISKPTGQPREPQVYVLAPHRDELSKNKVSVTCLVKDFYPTDIDIEWKSNGQPEPETKYSTTPAQLDSDGSYFLYSKLTVETNRWQQGTTFTCAVMHEALHNHYTEKSVSKSPGK
Take B4: the Kd amounted to 0.0247 µM. This Kd and that of the molecule before are within 1.5-fold of each other.

B5: equine IgG4 T286G (antibody, part only; not given: variable domains, not shown: another chain or arm of the molecule)
constant: ASTTAPKVFPLASHSAATSGSTVALGCLVSSYFPEPVTVSWNSGALTSGVHTFPSVLQSSGLYSLSSMVTVPASSLKSQTYICNVAHPASSTKVDKKIVIKECNGGCPAECLQVGPSVFIFPPKPKDVLMISRTPTVTCVVVDVGHDFPDVQFNWYVDGVETHGATTEPKQEQFNSTYRVVSVLPIQHKDWLSGKEFKCKVNNKALPAPVERTISKPTGQPREPQVYVLAPHRDELSKNKVSVTCLVKDFYPTDIDIEWKSNGQPEPETKYSTTPAQLDSDGSYFLYSKLTVETNRWQQGTTFTCAVMHEALHNHYTEKSVSKSPGK
As to B5, the Kd was 0.0233 µM. The Kd values of the last two molecules are within 1.5-fold of each other.

B6: equine IgG4 T286I (antibody, part only; not given: variable domains, not shown: another chain or arm of the molecule)
constant: ASTTAPKVFPLASHSAATSGSTVALGCLVSSYFPEPVTVSWNSGALTSGVHTFPSVLQSSGLYSLSSMVTVPASSLKSQTYICNVAHPASSTKVDKKIVIKECNGGCPAECLQVGPSVFIFPPKPKDVLMISRTPTVTCVVVDVGHDFPDVQFNWYVDGVETHIATTEPKQEQFNSTYRVVSVLPIQHKDWLSGKEFKCKVNNKALPAPVERTISKPTGQPREPQVYVLAPHRDELSKNKVSVTCLVKDFYPTDIDIEWKSNGQPEPETKYSTTPAQLDSDGSYFLYSKLTVETNRWQQGTTFTCAVMHEALHNHYTEKSVSKSPGK
Regarding B6, the dissociation constant Kd is 0.0133 µM.

B7: equine IgG4 T286W (antibody, part only; not given: Variable domains, not shown: another chain or arm of the molecule)
constant: ASTTAPKVFPLASHSAATSGSTVALGCLVSSYFPEPVTVSWNSGALTSGVHTFPSVLQSSGLYSLSSMVTVPASSLKSQTYICNVAHPASSTKVDKKIVIKECNGGCPAECLQVGPSVFIFPPKPKDVLMISRTPTVTCVVVDVGHDFPDVQFNWYVDGVETHWATTEPKQEQFNSTYRVVSVLPIQHKDWLSGKEFKCKVNNKALPAPVERTISKPTGQPREPQVYVLAPHRDELSKNKVSVTCLVKDFYPTDIDIEWKSNGQPEPETKYSTTPAQLDSDGSYFLYSKLTVETNRWQQGTTFTCAVMHEALHNHYTEKSVSKSPGK
The molecule B7 registered a Kd of 0.045 µM.

B8: equine IgG4 T286Y (antibody, part only; not given: variable domains, not shown: another chain or arm of the molecule)
constant: ASTTAPKVFPLASHSAATSGSTVALGCLVSSYFPEPVTVSWNSGALTSGVHTFPSVLQSSGLYSLSSMVTVPASSLKSQTYICNVAHPASSTKVDKKIVIKECNGGCPAECLQVGPSVFIFPPKPKDVLMISRTPTVTCVVVDVGHDFPDVQFNWYVDGVETHYATTEPKQEQFNSTYRVVSVLPIQHKDWLSGKEFKCKVNNKALPAPVERTISKPTGQPREPQVYVLAPHRDELSKNKVSVTCLVKDFYPTDIDIEWKSNGQPEPETKYSTTPAQLDSDGSYFLYSKLTVETNRWQQGTTFTCAVMHEALHNHYTEKSVSKSPGK
B8 came in with a Kd of 0.0269 µM.

B9: equine IgG4 T286M (antibody, part only; not given: variable domains, not shown: another chain or arm of the molecule)
constant: ASTTAPKVFPLASHSAATSGSTVALGCLVSSYFPEPVTVSWNSGALTSGVHTFPSVLQSSGLYSLSSMVTVPASSLKSQTYICNVAHPASSTKVDKKIVIKECNGGCPAECLQVGPSVFIFPPKPKDVLMISRTPTVTCVVVDVGHDFPDVQFNWYVDGVETHMATTEPKQEQFNSTYRVVSVLPIQHKDWLSGKEFKCKVNNKALPAPVERTISKPTGQPREPQVYVLAPHRDELSKNKVSVTCLVKDFYPTDIDIEWKSNGQPEPETKYSTTPAQLDSDGSYFLYSKLTVETNRWQQGTTFTCAVMHEALHNHYTEKSVSKSPGK
B9 came in with a Kd of 0.0203 µM.

B10: equine IgG4 T286Q (antibody, part only; not given: Variable domains, not shown: another chain or arm of the molecule)
constant: ASTTAPKVFPLASHSAATSGSTVALGCLVSSYFPEPVTVSWNSGALTSGVHTFPSVLQSSGLYSLSSMVTVPASSLKSQTYICNVAHPASSTKVDKKIVIKECNGGCPAECLQVGPSVFIFPPKPKDVLMISRTPTVTCVVVDVGHDFPDVQFNWYVDGVETHQATTEPKQEQFNSTYRVVSVLPIQHKDWLSGKEFKCKVNNKALPAPVERTISKPTGQPREPQVYVLAPHRDELSKNKVSVTCLVKDFYPTDIDIEWKSNGQPEPETKYSTTPAQLDSDGSYFLYSKLTVETNRWQQGTTFTCAVMHEALHNHYTEKSVSKSPGK
Molecule B10 came in with a Kd of 0.0245 µM.

B11: equine IgG4 T286L (antibody, part only; not given: variable domains, not shown: another chain or arm of the molecule)
constant: ASTTAPKVFPLASHSAATSGSTVALGCLVSSYFPEPVTVSWNSGALTSGVHTFPSVLQSSGLYSLSSMVTVPASSLKSQTYICNVAHPASSTKVDKKIVIKECNGGCPAECLQVGPSVFIFPPKPKDVLMISRTPTVTCVVVDVGHDFPDVQFNWYVDGVETHLATTEPKQEQFNSTYRVVSVLPIQHKDWLSGKEFKCKVNNKALPAPVERTISKPTGQPREPQVYVLAPHRDELSKNKVSVTCLVKDFYPTDIDIEWKSNGQPEPETKYSTTPAQLDSDGSYFLYSKLTVETNRWQQGTTFTCAVMHEALHNHYTEKSVSKSPGK
Take B11: the Kd came out at 0.0175 µM.

B12: equine IgG4 T286P (antibody, part only; not given: variable domains, not shown: another chain or arm of the molecule)
constant: ASTTAPKVFPLASHSAATSGSTVALGCLVSSYFPEPVTVSWNSGALTSGVHTFPSVLQSSGLYSLSSMVTVPASSLKSQTYICNVAHPASSTKVDKKIVIKECNGGCPAECLQVGPSVFIFPPKPKDVLMISRTPTVTCVVVDVGHDFPDVQFNWYVDGVETHPATTEPKQEQFNSTYRVVSVLPIQHKDWLSGKEFKCKVNNKALPAPVERTISKPTGQPREPQVYVLAPHRDELSKNKVSVTCLVKDFYPTDIDIEWKSNGQPEPETKYSTTPAQLDSDGSYFLYSKLTVETNRWQQGTTFTCAVMHEALHNHYTEKSVSKSPGK
For B12, the dissociation constant (Kd) turned out to be 0.0052 µM.

B13: equine IgG4 T286S (antibody, part only; not given: Variable domains, not shown: another chain or arm of the molecule)
constant: ASTTAPKVFPLASHSAATSGSTVALGCLVSSYFPEPVTVSWNSGALTSGVHTFPSVLQSSGLYSLSSMVTVPASSLKSQTYICNVAHPASSTKVDKKIVIKECNGGCPAECLQVGPSVFIFPPKPKDVLMISRTPTVTCVVVDVGHDFPDVQFNWYVDGVETHSATTEPKQEQFNSTYRVVSVLPIQHKDWLSGKEFKCKVNNKALPAPVERTISKPTGQPREPQVYVLAPHRDELSKNKVSVTCLVKDFYPTDIDIEWKSNGQPEPETKYSTTPAQLDSDGSYFLYSKLTVETNRWQQGTTFTCAVMHEALHNHYTEKSVSKSPGK
Turning to B13, the Kd was 0.0241 µM. This Kd is about 4.6-fold higher than that of the molecule before.

B14: equine IgG4 T286V (antibody, part only; not given: variable domains, not shown: another chain or arm of the molecule)
constant: ASTTAPKVFPLASHSAATSGSTVALGCLVSSYFPEPVTVSWNSGALTSGVHTFPSVLQSSGLYSLSSMVTVPASSLKSQTYICNVAHPASSTKVDKKIVIKECNGGCPAECLQVGPSVFIFPPKPKDVLMISRTPTVTCVVVDVGHDFPDVQFNWYVDGVETHVATTEPKQEQFNSTYRVVSVLPIQHKDWLSGKEFKCKVNNKALPAPVERTISKPTGQPREPQVYVLAPHRDELSKNKVSVTCLVKDFYPTDIDIEWKSNGQPEPETKYSTTPAQLDSDGSYFLYSKLTVETNRWQQGTTFTCAVMHEALHNHYTEKSVSKSPGK
Molecule B14 displayed a Kd of 0.0153 µM. This Kd lies about 1.6-fold lower than the previous one.

B15: equine IgG4 T286H (antibody, part only; not given: variable domains, not shown: another chain or arm of the molecule)
constant: ASTTAPKVFPLASHSAATSGSTVALGCLVSSYFPEPVTVSWNSGALTSGVHTFPSVLQSSGLYSLSSMVTVPASSLKSQTYICNVAHPASSTKVDKKIVIKECNGGCPAECLQVGPSVFIFPPKPKDVLMISRTPTVTCVVVDVGHDFPDVQFNWYVDGVETHHATTEPKQEQFNSTYRVVSVLPIQHKDWLSGKEFKCKVNNKALPAPVERTISKPTGQPREPQVYVLAPHRDELSKNKVSVTCLVKDFYPTDIDIEWKSNGQPEPETKYSTTPAQLDSDGSYFLYSKLTVETNRWQQGTTFTCAVMHEALHNHYTEKSVSKSPGK
With B15, the Kd is 0.0271 µM.

B16: equine IgG4 T286R (antibody, part only; not given: variable domains, not shown: another chain or arm of the molecule)
constant: ASTTAPKVFPLASHSAATSGSTVALGCLVSSYFPEPVTVSWNSGALTSGVHTFPSVLQSSGLYSLSSMVTVPASSLKSQTYICNVAHPASSTKVDKKIVIKECNGGCPAECLQVGPSVFIFPPKPKDVLMISRTPTVTCVVVDVGHDFPDVQFNWYVDGVETHRATTEPKQEQFNSTYRVVSVLPIQHKDWLSGKEFKCKVNNKALPAPVERTISKPTGQPREPQVYVLAPHRDELSKNKVSVTCLVKDFYPTDIDIEWKSNGQPEPETKYSTTPAQLDSDGSYFLYSKLTVETNRWQQGTTFTCAVMHEALHNHYTEKSVSKSPGK
Regarding B16, the Kd is 0.0214 µM.
